Assay results published in patent US20240391997A1 (BRIGHTPATH BIOTHERAPEUTICS, published 2024).

Experiments:
[1] = biological target: T1, biotinylated human Tim-3-Fc antigen (in-house preparation) (human, biotinylated); assay: competition ELISA: biotinylated human Tim-3-Fc premixed with the antibody, added to plate-bound human Galectin-9 (blocked ligand); streptavidin-HRP; Binding (%)
T1 construct: limits of the Tim-3 part not given

[2] = biological target: T1, biotinylated human Tim-3-Fc antigen …; assay: competition flow cytometry, biotinylated Tim-3-Fc premixed with antibody, binding to phosphatidylserine on apoptotic Jurkat cells (ligand not a protein)
[3] = biological target: T2, human Tim-3 expressed on cells (Jurkat cells stably expressing, Expi293 cells transiently expressing, … (human, UniProt Q8TDQ0 22-301)); assay: flow cytometry on Expi293 cells transiently expressing human Tim-3, KD from MFI curve
T2 construct: whole, on cells; One entry for all cell-surface forms; the cell type is named under assay; also called human Tim-3 expressed on the cell membrane

[4] = biological target: T2, human Tim-3 expressed on cells (Jurkat …); assay: flow cytometry on Jurkat cells stably expressing human Tim-3, KD from MFI curve
[5] = biological target: T1, biotinylated human Tim-3-Fc antigen …; assay: competition flow cytometry, biotinylated Tim-3-Fc premixed with antibody, binding to phosphatidylserine on apoptotic Jurkat cells (ligand not a protein); remark: listed apart in the source
[6] = biological target: T1, biotinylated human Tim-3-Fc antigen …; assay: competition ELISA, biotinylated Tim-3-Fc premixed with antibody, binding to coated human Galectin-9
[7] = biological target: T1, biotinylated human Tim-3-Fc antigen …; assay: as above; remark: listed apart in the source
[8] = biological target: T2, human Tim-3 expressed on cells (Jurkat …); assay: flow cytometry on activated human CD8 T cells, KD from MFI curve
[9] = biological target: T2, human Tim-3 expressed on cells (Jurkat …); assay: flow cytometry on activated human CD4 T cells, KD from MFI curve
[10] = biological target: T1, biotinylated human Tim-3-Fc antigen …; assay: competition ELISA, biotinylated Tim-3-Fc premixed with antibody, binding to coated human Galectin-9; remark: listed apart in the source
[11] = biological target: T2, human Tim-3 expressed on cells (Jurkat …); assay: flow cytometry on Jurkat cells stably expressing human Tim-3, KD from MFI curve; remark: listed apart in the source
[12] = biological target: T2, human Tim-3 expressed on cells (Jurkat …); assay: flow cytometry on activated human CD4 T cells, KD from MFI curve; remark: listed apart in the source
[13] = biological target: T1, biotinylated human Tim-3-Fc antigen …; assay: competition flow cytometry, biotinylated Tim-3-Fc premixed with antibody, binding to phosphatidylserine on apoptotic Jurkat cells (ligand not a protein); remark: listed apart in the source
[14] = biological target: T2, human Tim-3 expressed on cells (Jurkat …); assay: flow cytometry on Expi293 cells transiently expressing human Tim-3, KD from MFI curve; remark: listed apart in the source
[15] = biological target: T2, human Tim-3 expressed on cells (Jurkat …); assay: flow cytometry on activated human CD8 T cells, KD from MFI curve; remark: listed apart in the source

| Binder | IC50 (read off the curve) [1] [nM] | IC50 [2] [nM] | Kd [3] [nM] | Kd [4] [nM] | IC50 [5] [nM] | IC50 [6] [nM] | inhibition of the binding between human Tim-3 and human Galectin-9 [7] [%] | Kd [8] [nM] | Kd [9] [nM] | IC50 [10] [nM] | Kd [11] [nM] | Kd [12] [nM] | IC50 [13] [nM] | Kd [14] [nM] | Kd [15] [nM] |
| --- | --- | --- | --- | --- | --- | --- | --- | --- | --- | --- | --- | --- | --- | --- | --- |
| Hu621003ct antibody (bispecific antibody, not shown: a dimerising Fc or GST) scFv 1: QVQLQESGGGLVKPGGSLKLSCAASGFTFSSYYMSWVRQTPDKRLEWVATISNSGGSTYYPDSVKDRFTISRDNAKNTLYLQMSSLKSEDTAMYYCARDPYYTNYVPMDYWGQGTMVTVSSGGGGSGGGGSGGGGSGGGGSDIVMTQSPSFLSASVGDRVTITCKASQYVDTYVAWYQQRPGKAPKPLIYSASTRHTGVPSRFSGSGSGTEFTLTISSLQPEDFATYFCAQYSSSPLTFGGGTKLELK scFv 2: QVQLVQSGAEVKKPGASVKVSCKASGYTFTDYYMDWVRQAPGQGLEWLGYIYPNKGGTSYNQKFKGRVTMTTDKSTSTAYMELRSLRSDDTAVYYCARSGYKAYYAMDYWGQGTTVTVSSGGGGSGGGGSGGGGSGGGGSDIVMTQSQKFMSTSVGDRVSITCKASQSVGNNVAWYQQKPGQSPKLLIYYASNRYTGVPDRFTGSGSGTDFTLTISNMQSEDLADYFCQQHYSSPYTFGGGTKLEIK | – | – | 2.27 | 0.283 | 32.3 | 0.819 | ≥ 90 | – | – | – | – | – | – | – | – |
| Ch428003ct antibody (bispecific antibody, not shown: a dimerising Fc or GST) scFv 1: EVMLMESGGGLVKLGGSLKLSCAASGFTFSSYYMSWVRQTPEKRLEWVATISNSGGSIYYLDSVKDRFTISRDNAKNTLYLQMSSLNSEDTAVYYCARDPYYSNYVPMDYWGQGTSVTVSSGGGGSGGGGSGGGGSGGGGSSIVMTQTPKFMSTSVGDRVSVTCKASQYVDTYVAWYQQKPGQSPKPLIYSASTRHTGVPARFTGSGSGTDFTLTISNVQSEDLAEYFCAQYSSSPLTFGAGTKLELK scFv 2: QVQLQQSGPELVKPGDSVKMSCKASGYTFTDYYMDWVKQSHGKSLEWIGYIYPNNGGTSYNQKFKGKATLTVDKSSSTAYMELHSLTSEDSAVYYCARGGYYSYYSYDYWGQGTTLTVSSGGGGSGGGGSGGGGSGGGGSSIVMTQTPKFLPVSAGDRVTMTCKASQSVGNNVAWYQQKPGQSPKLLIYYASNRYTGVPDRFTGSGSGTDFTFTISSVQVEDLAVYFCQQHYSSPYTFGTGTKLEIK | – | – | – | – | – | – | ≥ 90 | – | – | 0.454 | 0.194 | 0.218 | 12.8 | 1.37 | – |
| Ch149003ct antibody (bispecific antibody, not shown: a dimerising Fc or GST) scFv 1: EVMLMESGGGLVKLGGSLKLSCAASGFTFSSYYMSWVRQTPEKRLEWVATISNSGGSIYYLDSVKDRFTISRDNAKNTLYLQMSSLNSEDTAVYYCARDPYYSNYVPMDYWGQGTSVTVSSGGGGSGGGGSGGGGSGGGGSSIVMTQTPKFMSTSVGDRVSVTCKASQYVDTYVAWYQQKPGQSPKPLIYSASTRHTGVPARFTGSGSGTDFTLTISNVQSEDLAEYFCAQYSSSPLTFGAGTKLELK scFv 2: QVQLQQSGPERVKPGDSVKMSCKASGYTFTDYYMDWVKQSHGKSLEWIGYIYPNNGGTSYNQKFKGKATLTVDKSSSTAYMELHSLTSEDSAVYYCARSGYGNYYTMDYWGQGTSVTVSAGGGGSGGGGSGGGGSGGGGSSIVMTQTPKFMPVSAGDRVTMTCKASQSVGNNVAWYQQKPGQSPKLLIYYASNRYTGVPDRFTGSGSGTDFTFTISSVQVEDLAVYFCQQHYSSPSTFGTGTKLEIK | – | – | – | – | – | – | ≥ 90 | – | – | 0.589 | 0.404 | 0.508 | 22.9 | 2.17 | 0.558 |

Other lines, results leading:

| IC50 (read off the curve) [1] [nM] | IC50 [2] [nM] | Kd [3] [nM] | Kd [4] [nM] | IC50 [5] [nM] | IC50 [6] [nM] | inhibition of the binding between human Tim-3 and human Galectin-9 [7] [%] | Kd [8] [nM] | Kd [9] [nM] | IC50 [10] [nM] | Kd [11] [nM] | Kd [12] [nM] | IC50 [13] [nM] | Kd [14] [nM] | Kd [15] [nM] | Binder |
| --- | --- | --- | --- | --- | --- | --- | --- | --- | --- | --- | --- | --- | --- | --- | --- |
| ~0.5 | 10.7 | – | – | – | – | – | – | – | – | – | – | – | – | – | Hu003_13_F20_LA antibody (antibody, V domains shown) VH: QVQLQESGGGLVKPGGSLKLSCAASGFTFSSYYMSWVRQTPDKRLEWVATISNSGGSTYYPDSVKDRFTISRDNAKNTLYLQMSSLKSEDTAMYYCARDPYYTNYVPMDYWGQGTMVTVSS VL: DIVMTQSPSFLSASVGDRVTITCKASQYVDTYVAWYQQRPGKAPKPLIYSASTRHTGVPSRFSGSGSGTEFTLTISSLQPEDFATYFCAQYSSSPLTFGGGTKLELK |
| – | – | 2.3 | 0.232 | 27.3 | 0.712 | ≥ 90 | 0.263 | 0.279 | – | – | – | – | – | – | Hu428003ct antibody (bispecific antibody, not shown: a dimerising Fc or GST) scFv 1: QVQLQESGGGLVKPGGSLKLSCAASGFTFSSYYMSWVRQTPDKRLEWVATISNSGGSTYYPDSVKDRFTISRDNAKNTLYLQMSSLKSEDTAMYYCARDPYYTNYVPMDYWGQGTMVTVSSGGGGSGGGGSGGGGSGGGGSDIVMTQSPSFLSASVGDRVTITCKASQYVDTYVAWYQQRPGKAPKPLIYSASTRHTGVPSRFSGSGSGTEFTLTISSLQPEDFATYFCAQYSSSPLTFGGGTKLELK scFv 2: QVQLVQSGAEVKKPGASVKVSCKASGYTFTDYYMDWVRQAPGQGLEWLGYIYPNKGGTSYNQKFKGRVTMTTDKSTSTAYMELRSLRSDDTAVYYCARGGYYSYYSYDYWGQGTTVTVSSGGGGSGGGGSGGGGSGGGGSDIVMTQSQKFMSTSVGDRVSITCKASQSVGNNVAWYQQKPGQSPKLLIYYASNRYTGVPDRFTGSGSGTDFTLTISNMQSEDLADYFCQQHYSSPYTFGGGTKLEIK |
| – | – | 4.16 | 0.904 | 32.3 | 1.12 | ≥ 90 | 0.97 | 0.917 | – | – | – | – | – | – | Hu149003ct antibody (bispecific antibody, not shown: a dimerising Fc or GST) scFv 1: QVQLQESGGGLVKPGGSLKLSCAASGFTFSSYYMSWVRQTPDKRLEWVATISNSGGSTYYPDSVKDRFTISRDNAKNTLYLQMSSLKSEDTAMYYCARDPYYTNYVPMDYWGQGTMVTVSSGGGGSGGGGSGGGGSGGGGSDIVMTQSPSFLSASVGDRVTITCKASQYVDTYVAWYQQRPGKAPKPLIYSASTRHTGVPSRFSGSGSGTEFTLTISSLQPEDFATYFCAQYSSSPLTFGGGTKLELK scFv 2: QVQLVQSGAEVKKPGASVKVSCKASGYTFTDYYMDWVRQAPGQGLEWLGYIYPNKGGTSYNQKFKGRVTMTTDKSTSTAYMELRSLRSDDTAVYYCARSGYGNYYTMDYWGQGTTVTVSSGGGGSGGGGSGGGGSGGGGSDIVMTQSQKFMSTSVGDRVSITCKASQSVGNNVAWYQQKPGQSPKLLIYYASNRYTGVPDRFTGSGSGTDFTLTISNMQSEDLADYFCQQHYSSPSTFGGGTKLEIK |
| – | – | – | – | – | – | ≥ 90 | – | – | 0.751 | 0.256 | 0.287 | 16.3 | 1.82 | 0.308 | Ch621003ct antibody (bispecific antibody, not shown: a dimerising Fc or GST) scFv 1: EVMLMESGGGLVKLGGSLKLSCAASGFTFSSYYMSWVRQTPEKRLEWVATISNSGGSIYYLDSVKDRFTISRDNAKNTLYLQMSSLNSEDTAVYYCARDPYYSNYVPMDYWGQGTSVTVSSGGGGSGGGGSGGGGSGGGGSSIVMTQTPKFMSTSVGDRVSVTCKASQYVDTYVAWYQQKPGQSPKPLIYSASTRHTGVPARFTGSGSGTDFTLTISNVQSEDLAEYFCAQYSSSPLTFGAGTKLELK scFv 2: QIQLQQSGPELVKPGDSVKMSCKASGYTFTDYYMDWVKQSHGKSLEWIGYIYPNNGGTSYNQKFKGKATLTVDKSSSTAYMELHSLTSEDSAVYYCARSGYKAYYAMDYWGQGTTLTVSSGGGGSGGGGSGGGGSGGGGSSIVMTQTPKFLPVSAGDRVTMTCKASQSVGNNVAWYQQKPGQSPKLLIYYASNRYTGVPDRFTGSGSGTDFTFTISSVQVEDLAVYFCQQHYSSPYTFGSGTKLEIK |
